Measured values from the supplement of paper PMC12042874.
± gives the uncertainty stated by the source.

Legend:
[1] = amyloid nucleation score (Sup35N fusion, yeast selection) (log enrichment); library NNK1; higher = more nucleation; inactive = no reads after selection
Summary of the method: (§1)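 Output and input plasmid inserts were sequenced by Illumina after psi-negative yeast carrying Sup35N fused to peptides of 20 random codons had been induced 24 hours with 100 μM copper sulfate and grown 7 days at 30°C on medium lacking adenine and uracil. The nucleation score is the DiMSum log enrichment of output over input reads, centred on the mode score of non-aggregating sequences. Sequences with under 100 input reads were excluded.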

[2] = amyloid nucleation score (Sup35N fusion, yeast selection) (log enrichment); library NNK2; higher = more nucleation; inactive = no reads after selection
Summary of the method: as §1

| Substance | amyloid nucleation score [1] | amyloid nucleation score [2] |
| --- | --- | --- |
| AAPLNMCLANTGFAQFLTSI | -0.618 ± 1.2 | – |
| AAVLGFCSWNLRRRIMEF | -0.864 ± 1.4 | – |
| ACCYVDLKIKFNVLPAVNIK | inactive | – |
| ACDLNIIWADNSDYLIYVIS | 0.341 ± 0.36 | – |
| ACFPLQVKDCYKCLGHLRAV | 0.315 ± 0.29 | – |
| ACRGPNSHRFTGILHIFFLE | 0.705 ± 0.67 | – |
| ACSGISILTCIIYRRQYISS | -1 ± 0.91 | – |
| ADLLVVGVPSFNFWSSKVFV | inactive | – |
| ADRRLW | -0.04 ± 0.32 | – |
| AFDWSMSAKDQINEQTLNSV | 0.617 ± 0.28 | – |
| AFGLMNCDRLSLTSNINTGG | -0.4 ± 0.41 | – |
| AFKWTSCYIFPLNWRKLFN | -0.336 ± 0.34 | – |
| AFSLR | -0.437 ± 0.57 | – |
| AFVVYMNFFHCLESNIVEWH | 5.61 ± 0.073 | – |
| AFYIRIGVHFPQ | -0.525 ± 1.1 | – |
| AFYNCYSGNYFNYIFIYRCT | 7.283 ± 0.053 | – |
| AGAVCWACDR | -1.4 ± 0.77 | – |
| AGAWIVDVTGKSMERYVGNK | 0.133 ± 0.61 | – |
| AGFSSDFASVPHPLGYGWLT | -0.662 ± 1.2 | – |
| AGGRFCLLKFLTRFASCRGE | 2.44 ± 0.24 | – |
| AGIIVWN | -0.087 ± 0.31 | – |

| Substance | amyloid nucleation score [1] | amyloid nucleation score [2] |
| --- | --- | --- |
| AGLRIYVVSFILTYGKRFSS | 0.12 ± 0.4 | – |
| AGMAWYTPVWVSGWGQPHTE | -0.119 ± 0.38 | – |
| AGVNWASHWHMDHMSGFVEW | -0.684 ± 0.3 | – |
| AGYGFKCMGYRLDLKTPFVY | 0.019 ± 0.59 | – |
| AHCLLIALTCCRKNNKNVSC | 0.902 ± 0.44 | – |
| AHFKYN | 0.271 ± 1.4 | – |
| AHRDWFS | -0.553 ± 1.1 | – |
| AHSALVTRTYSINIYFVSVE | 1.51 ± 0.21 | – |
| AHYPFI | 0.065 ± 1.5 | – |
| AIDRVSYHVKVVRGHINSKF | inactive | – |
| AIGSCWTGLRNGT | 0.734 ± 1.1 | – |
| AIMLGVGFKDGSIVYKLG | -0.354 ± 0.25 | – |
| AIPRSVITRFLSCLAIEAWQ | 0.627 ± 0.41 | – |
| AISLVAVRFMGMGEGVSDKN | 5.33 ± 0.1 | – |
| AIVNMVLIHKERTVSVLIRA | -0.296 ± 0.58 | – |
| AIVVKNDFTGSPRF | inactive | – |
| AIWVDVTLFTEKADWVSLRR | 2.42 ± 0.28 | – |
| AIYIVVEI | -0.764 ± 1.2 | – |
| AIYSPYRNLER | 0.233 ± 0.42 | – |
| AKLAPCNSLVIDTY | 1.89 ± 0.4 | – |
| AKRLFRRSTLMTSNTGLAVL | 0.287 ± 1.4 | – |

| Substance | amyloid nucleation score [1] | amyloid nucleation score [2] |
| --- | --- | --- |
| AKSKVLWESSVRQRS | -0.04 ± 0.62 | – |
| ALAPPKNSFLLMLALILMLL | 0.093 ± 0.53 | – |
| ALCFCWNWLLCTDKGL | 6.056 ± 0.048 | – |
| ALCVDGDAVVTWDTILNEHF | -0.361 ± 0.97 | – |
| ALCVWQRLSRLLLDTPWHVR | 0.806 ± 0.69 | – |
| ALGLRILCMRRDSRWDSPCS | 0.353 ± 0.84 | – |
| ALITFSRGWLAPLMGQQMVL | inactive | – |
| ALKFPMWDSVEYGDCVGSLI | inactive | – |
| ALLESGCWSMWFVSFRFELA | -0.119 ± 0.76 | – |
| ALLMGDFGCFLYTFGWFYAK | -0.173 ± 0.41 | – |
| ALLSSYLWK | 0.996 ± 0.45 | – |
| ALLVPGILW | 3.34 ± 0.078 | – |
| ALNHRHTGTRK | 0.782 ± 0.61 | – |
| ALNSQSGFKFERSMYLLVIG | 1.17 ± 0.43 | – |
| YMDSKSNLARTFVRVCGLLG | – | 0.097 ± 1.1 |
| YMFMIRSGFV | – | -0.376 ± 0.37 |
| YMFRDQVWYMTYKDYGHGIR | – | -0.249 ± 1.1 |
| YMHSICLFIVDNKIDYLRGY | – | 0.541 ± 0.74 |
| YMLRIRTMSVPVFPVGFLGL | – | -0.275 ± 0.56 |
| YMRMKW | – | 3.46 ± 0.079 |
| YMTTNRKPLDFYQHVYLMKV | – | inactive |

| Substance | amyloid nucleation score [1] | amyloid nucleation score [2] |
| --- | --- | --- |
| YNAVA | – | inactive |
| YNAWSSWYLGVLRPIGCCNG | – | 9.703 ± 0.046 |
| YNCGTQRYLVFNNESNSFFS | – | 3.18 ± 0.071 |
| YNDVCLCNGSLGWKLVLE | – | -0.177 ± 1 |
| YNKNSKFLGRFDCSLFI | – | -1.04 ± 1.1 |
| YNLCSSCNIQWWCSRMHQQK | – | 8.858 ± 0.055 |
| YNPCLSRSHSKCLRTWLECR | – | 1.26 ± 0.44 |
| YNPVPFL | – | -0.788 ± 0.39 |
| YNSLVRMRTRYIGR | – | 0.025 ± 0.46 |
| YNVGALASVSRFRDGFGLS | – | 1.57 ± 0.1 |
| YNVTTMYNYYLICISLATMY | – | 7.09 ± 0.08 |
| YNWGNASSSGVKPEPGGQPT | – | 0.696 ± 0.27 |
| YNYLAMPQMLMEYFISVVVS | – | 2.05 ± 0.089 |
| YPDIYGFEKRIDSPSNLGML | – | 0.433 ± 0.6 |
| YPIIVFAVLCFEWETYWCSL | – | 0.015 ± 0.76 |
| YPIVLRA | – | 1.01 ± 0.48 |
| YPVIPGISRLLNTQRIVFLG | – | -0.226 ± 0.21 |
| YPWRYIFLSDPAGLIQTCRF | – | -1.34 ± 0.54 |
| YQARVTMCIPAWTMSECSQC | – | -1.01 ± 0.76 |
| YQLNWVKAASCSISLYFTFL | – | 3.87 ± 0.082 |
| YQRNSFNDHADYPYHELVKS | – | 0.222 ± 0.64 |
